Source: patent US20200141935A1, “SYSTEM, METHOD, APPARATUS AND DIAGNOSTIC TEST FOR PREGNANCY” (BARCELONA INSTITUTE FOR GLOBAL HEALTH, priority 2017, published 2020)

How the values were obtained:
P. falciparum = assay: Prevalence of infection by qPCR at delivery by intermittent preventive treatment group; type: in vivo, pregnant women; conditions: for PCR prevalence of infection (%): by IPTp group
Protocol: All women included in the study received bed nets treated with long-lasting insecticide. At delivery, HIV serostatus was assessed using a rapid diagnostic test and hemoglobin was determined in capillary blood sample using mobile devices (HemoCue, Hemocontrol and Sysmex KX analyzer). Tissue samples from the maternal side of the placenta, as well as maternal peripheral-, placental-blood samples were collected at delivery. Dried blood spots onto filter paper were prepared (50 ul) and blood was collected into EDTA vacutainers and centrifuged, with the plasma stored at −20° C. […] Clinical malaria episodes were treated according to national guidelines at the time of the study. Biases due to pooling of data from these two clinical trials were minimized by the use of similar protocols and procedures during the two trials. […] P. falciparum infection at delivery was defined if peripheral or placental blood samples were positive by microscopy or qPCR or if histology positive (active or chronic). Infection during pregnancy was defined if peripheral or placental blood samples were positive by microscopy or qPCR at any time-point of collection, if P. falciparum detected by hospital passive case detection (PCD), or if histology positive (active, chronic or past) on the sub-set of women from longitudinal cohort. Seroprevalences between countries (Benin, Gabon and Mozambique for HIV-uninfected and Kenya and Mozambique for HIV-infected), between IPTp intervention group (MQ vs SP for HIV-uninfected and MQ vs Placebo for HIV infected) and anemia status were compared by logistic regression models adjusted by parity, age and treatment.

IgG [1] = assay: Multiplex bead-based immunoassay: seroprevalence (finite mixture models or negative control cutoff); type: binding, pregnant women; conditions: for Seroprevalence MQ (%): IPTp with mefloquine; for Seroprevalence Non-A (%): non anemia
Excerpt: (§1) Two multiplex suspension array panels were constructed to quantify IgG responses against P. falciparum recombinant proteins and synthetic peptides, using the xMAP™ technology and the Luminex® 100/200™ System (Luminex® Corp., Austin, Tex.). MagPlex® microspheres (magnetic carboxylated polystyrene microparticles, 5.6 μm) with different spectral signatures were selected for each protein (DBL3X, DBL5ϵ, DBL6ϵ, AMA1 and MSP119), peptides (25 VAR2CSA peptides and pCSP), tetanus toxin and bovine serum albumin (BSA). Antigens were covalently coupled to beads following a modification of the Luminex® Corporation protocol. Protein and peptide multiplex arrays were prepared by pooling together equal volumes of coated beads. Plasma samples or the product of DBS elution were analyzed in duplicate at dilution 1:400 for the protein array and 1:100 for the peptide array. A hyperimmune plasma pool composed by 23 plasmas from malaria infected Mozambican pregnant women (HIP-VAR2CSA) was included in each assay plate, in addition to blanks (wells without sample) to assess background levels. A minimum of 50 microspheres were read per spectral signature and results were exported as crude median fluorescent intensity ([…]). Duplicates were averaged and background MFIs were subtracted. A total of 224 plates were analyzed and the intra-assay variation (mean CV of replicates from 20 plasma samples per plate) ranged from 1.4% to 7.3% for the protein array and from 2.5% to 12.4% for the peptide array. The inter-assay variation (variability of positive pool [HIP-VAR2CSA] between 224 plates) was 5% for the protein array and 26% for the peptide array. Results were normalized (nMFI) to account for plate-to-plate variation by […] the background subtracted MFI of each sample with the value of the positive pool in the same plate and dividing by the median of positive pools in all plates.
(§2) Antibodies were eluted from DBS from Gabon, […] and Kenya, as previously described. Briefly, to achieve a concentration of eluted blood proteins equivalent to a 1:50 plasma dilution antibodies were eluted from four spots of approximately 3 mm in diameter with 200 μl Luminex® assay buffer (1% BSA, 0.05% sodium azide in filtrated PBS [Phosphate-buffered saline]). […]. Controls blood drops were artificially prepared using fresh erythrocytes (blood type 0, assuming a hematocrit approximately of 50%) and freeze plasma from 49 Spanish pregnant women. Filter papers were stored avoiding humidity at −20° C. in Barcelona.
(§3) Presence or absence of antibodies was defined by finite mixture models (FMM) for pregnancy-specific antigens (VAR2CSA peptides and recombinant domains) and by the mean plus 3 standard deviation (SD) of IgG response from pregnant women from Barcelona for general malaria antigens (AMA1, MSP119, and pCSP).
(§4) Data was fitted to a normal distribution by logarithmic transformation of nMFIs. Participant's baseline characteristics and parasitological outcomes were compared between study times and areas by univariate analysis (Fisher's tests for binary outcomes or t-Student test for continuous outcomes). Responses were considered not restricted to malaria when seroprevalences were 5% or high among Spanish pregnant women.
Seroprevalences between countries (Benin, Gabon and Mozambique for HIV-uninfected and Kenya and Mozambique for HIV-infected), between IPTp intervention group (MQ vs SP for HIV-uninfected and MQ vs Placebo for HIV infected) and anemia status were compared by logistic regression models adjusted by parity, age and treatment.
The modification of the associations by HIV infection or parity was assessed by including interaction terms into the regression models.

IgG [2] = assay: Multiplex bead-based immunoassay (Luminex): IgG levels (nMFI) against antigens, compared between groups; type: binding, pregnant women
Excerpt: as §1, §2, §3, §4
Linear regression models were used to compare antibody levels from Mozambican and Spanish pregnant women. The capacity of antibody levels to mimic malaria trends in Mozambique was analyzed by linear regression models (2010 was compared with 2003-2005 corresponding to a trend of malaria decrease and 2011-2012 with 2010 to a trend of increase) adjusted by treatment, parity, age and HIV.
The impact of P. falciparum infection during pregnancy on antibodies at delivery was assessed in linear regression models adjusted by age, parity, HIV and treatment. Changes in antibody levels due to parasite density (below or above 200) were assessed by linear regression models adjusted by age, parity, HIV and treatment. […]

IgG [3] = assay: Antibody dynamics during pregnancy (time to double, half-life, sero-reversion) from bead-based immunoassay; type: binding, pregnant Mozambican women
Excerpt: as §1
The adjusted effect of infection on antibody levels was analyzed using log-linear mixed-effects regression models incorporating Gaussian random intercepts. […] Time to double the antibody levels (T2x) and half-lives were calculated in weeks from the estimated rates and the boundaries at 95% confidence interval obtained from mixed-effects models for subjects suffering a P. falciparum infection at follow-up independent of antibody status at recruitment (Ab[−or+]/Pf+) and subjects seropositive at recruitment and no infection detected on follow-up (Ab+/Pf−), respectively. In situations that the increase rate is a negative value (rate below 1) or the decay rate is a positive value (rate above 1), the calculated T2x or half-life was reported as infinity. Similarly, the time to sero-reversion was calculated for these subjects using the ratio of the seropositivity cutoff by the average antibody titers at recruitment as decay, i.e. how many times the average titers need to be reduced to be equal the cutoff.

[4] = HIV uninfected, qPCR in peripheral and placental blood at delivery

sulfadoxine-pyrimethamine [SP] was tested, and the “PCR SP (OR)” value (P. falciparum; HIV uninfected, SP with MQ as reference) was 1.93 (1.28; 2.91) and the “PCR prevalence of infection (%)” value (P. falciparum; [4]) was 27%.

In the case of `OC(c1cc(C(F)(F)F)nc2c(C(F)(F)F)cccc12)C1CCCCN1` (stereo not drawn) [MQ, mefloquine], the “PCR MQ (OR)” value (P. falciparum; HIV infected, MQ with Placebo as reference) is reported as 0.24 (0.10; 0.59), the “PCR prevalence of infection (%)” value (P. falciparum; HIV infected, qPCR at delivery) is reported as 2% and the “PCR prevalence of infection (%)” value (P. falciparum; [4]) is reported as 18%.

B1: AMA1: recombinant apical membrane antigen 1, from 3D7 strain (protein)
chain: QNYWEHPYQNSDVYRPINEHREHPKEYEYPLHQEHTYQQEDSGEDENTLQHAYPIDHEGAEPAPQEQNLFSSIEIVERSNYMGNPWTEYMAKYDIEEVHGSGIRVDLGEDAEVAGTQYRLPSGKCPVFGKGIIIENSNTTFLTPVATGNQYLKDGGFAFPPTEPLMSPMTLDEMRHFYKDNKYVKNLDELTLCSRHAGNMIPDNDKNSNYKYPAVYDDKDKKCHILYIAAQENNGPRYCNKDESKRNSMFCFRPAKDISFQNYTYLSKNVVDNWEKVCPRKNLQNAKFGLWVDGNCEDIPHVNEFPAIDLFECNKLVFELSASDQPKQYEQHLTDYEKIKEGFKNKNASMIKSAFLPTGAFKADRYKSHGKGYNWGNYNTETQKCEIFNVKPTCLINNSSYIATTALSHPIEVENNFPCSLYKDEIMKEIERESKRIKLNDNDDEGNKKIIAPRIFISDDKDSLKCPCDPEMVSNSTCRFFVCKCVERRAEVTSNNEVVVKEEYKDEYADIPEHKPTYDKMK
In the case of B1, the “SeroPrev Delivery %” value (IgG [1]; 239 pregnant Mozambican women followed 2011-2012) is reported as 89%, the “Seroprevalence MQ (%)” value (IgG [1]; HIV infected) is reported as 92% and the “Seroprevalence K (%)” value (IgG [1]; HIV infected, Kenya, at delivery) is reported as 95%. For the same molecule, the “MQ (OR)” value (IgG [1]; HIV infected, MQ, Placebo as reference) was 0.6 (0.32; 1.12), the “M (OR)” value (IgG [1]; HIV infected, Mozambique, Kenya as reference) was 0.76 (0.40; 1.45) and the “Seroprevalence M (%)” value (IgG [1]; HIV infected, Mozambique, at delivery) was 93%. The “Seroprevalence PL (%)” value (IgG [1]; HIV infected, Placebo group) was 95%, the “Seroprevalence A (%)” value (IgG [1]; HIV infected, anemia) was 92% and the “A (OR)” value (IgG [1]; HIV infected, anemia, Non-A as reference) was 0.79 (0.41; 1.51). For the same molecule, the “Seroprevalence Non-A (%)” value (IgG [1]; HIV infected) was 94%, the “Seroprevalence B (%)” value (IgG [1]; HIV uninfected, Benin, at delivery) was 100% and the “Seroprevalence G (%)” value (IgG [1]; HIV uninfected, Gabon, at delivery) was 82%. For the same molecule, the “Seroprevalence MQ (%)” value (IgG [1]; HIV uninfected) was 96%, the “Seroprevalence SP (%)” value (IgG [1]; HIV uninfected, IPTp with sulfadoxine-pyrimethamine) was 96% and the “Seroprevalence M (%)” value (IgG [1]; HIV uninfected, Mozambique, at delivery) was 93%. For the same molecule, the “Seroprevalence A (%)” value (IgG [1]; HIV uninfected, anemia) was 96%, the “Seroprevalence Non-A (%)” value (IgG [1]; HIV uninfected) was 96% and the “Seroprevalence in Tanzania” value (IgG [1]; HIV-uninfected women, area of Tanzania where no malaria infection was observed) was 42%. For the same molecule, the “Seroprevalence 2003/4 (%)” value (IgG [1]; Mozambican pregnant women at delivery, 2003/4) was 99%, the “Seroprevalence 2005 (%)” value (IgG [1]; Mozambican pregnant women at delivery, 2005) was 98% and the “Seroprevalence 2010 (%)” value (IgG [1]; Mozambican pregnant women at delivery, 2010) was 93%. For the same molecule, the “Seroprevalence 2011 (%)” value (IgG [1]; Mozambican pregnant women at delivery, 2011) was 89%, the “Seroprevalence 2012 (%)” value (IgG [1]; Mozambican pregnant women at delivery, 2012) was 92% and the “SeroPrev PW Bcn (%)” value (IgG [1]; seroprevalence among pregnant Spanish women never exposed to malaria) was 2%. For the same molecule, the “Decrease (OR)” value (IgG [1]; seroprevalence odds ratio 2010 vs 2003/5, Mozambique, adjusted) was 0.24 (0.06; 0.93), the “Increase (OR)” value (IgG [1]; seroprevalence odds ratio 2011/12 vs 2010, Mozambique, adjusted) was 0.58 (0.29; 1.16) and the “Immunoreactivity: recognition by IgGs at levels above BSA recognition” value (IgG [2]; 641 pregnant Mozambican women 2003-2012, mean nMFI above mean BSA nMFI plus 3 SD) was “above BSA recognition”. The “Infection during pregnacy Infection vs no-infection ratio (95% CI)” value (IgG [2]; nMFI at delivery, Mozambican women followed 2011-2012, adjusted) was 1.8 (1.30; 2.50), the “Parity MG vs PG ratio (95% CI)” value (IgG [2]; nMFI at delivery, multigravid vs primigravid Mozambican women, adjusted) was 1.2 (0.76; 1.9) and the “Exposure dependence Increase 2011-2012 vs 2010 Ratio (95% CI)” value (IgG [2]; nMFI ratio at delivery, Mozambique, adjusted by parity, age, treatment and HIV) was 0.88 (0.73; 1.07). The “PW Mz vs PW Bcn Ratio (95% CI)” value (IgG [2]; nMFI ratio, pregnant Mozambican women vs pregnant Spanish women (N=49)) was 24.51 (18.53; 32.43), the “Parasite density Low vs High ratio (95% CI)” value (IgG [2]; nMFI ratio, below or above 200 genomes per microliter, adjusted) was 1.18 (0.96; 1.46) and the “Antibody dynamics Sero-revertion weeks (95% CI)” value (IgG [3]; time to sero-negativisation, seropositive at recruitment, no infection on follow-up) was 544.49 (242.56; ∞) weeks. The “Antibody dynamics Time to double weeks (95% CI)” value (IgG [3]; women with P. falciparum infection on follow-up, log-linear mixed-effects model) was 91.65 (39.61; ∞) weeks.
